Legend:
[1] = target: rabbit antiserum against CTP37, rabbit # 4164; assay: competition immunoassay, peptide competitor against rabbit antiserum 4164; legend: ++ = ED 50 < 250 ng
[2] = target: rabbit antiserum against COMBINED LOOP + CTP37, rabbit # 4165; assay: competition immunoassay, peptide competitor against rabbit antiserum 4165; legend: ++ = ED 50 < 250 ng
[3] = target: rabbit antiserum against COMBINED LOOP + CTP37, rabbit # 4173; assay: competition immunoassay, peptide competitor against rabbit antiserum 4173; legend: ++ = ED 50 < 250 ng
[4] = target: rabbit antiserum against COMBINED LOOP + CTP37, rabbit # 4166; assay: competition immunoassay, peptide competitor against rabbit antiserum 4166; legend: ++ = ED 50 < 250 ng

Measured: ED50

CDDPRFQDSSSSKAPPPSLPS [hCG-CTP21 (residues 130-150 of the beta subunit of hCG)]
10 to 250 ng: [1] | [2] | [3] | [4]

— patent publication US6764680
